The target in this assay is human PD-L1 (human, UniProt Q9NZQ7 19-290). The assay can be described thus: FACS.
Sequence of human PD-L1 (Q9NZQ7 19-290): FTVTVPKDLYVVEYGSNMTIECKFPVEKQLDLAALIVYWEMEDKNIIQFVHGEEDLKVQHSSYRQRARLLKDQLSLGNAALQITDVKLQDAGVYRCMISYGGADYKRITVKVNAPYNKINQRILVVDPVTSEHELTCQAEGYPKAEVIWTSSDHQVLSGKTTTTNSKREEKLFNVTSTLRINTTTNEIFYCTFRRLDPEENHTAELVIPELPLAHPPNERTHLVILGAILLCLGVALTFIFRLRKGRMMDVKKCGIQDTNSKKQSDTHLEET

B1: PR004268, PD-L1×4-1BB bispecific binding protein with the VH-IgG structure (structure 4) (bispecific antibody)
light: DIQMTQSPSTLSASVGDRVTVTCRASQSIYIWLAWYQQKPGKAPNLLIYKASSLETGVPSRFSGSGSGTEFTLTISSLQPDDFATYYCQQYYGSSRTFGQGTKVEIKRTVAAPSVFIFPPSDEQLKSGTASVVCLLNNFYPREAKVQWKVDNALQSGNSQESVTEQDSKDSTYSLSSTLTLSKADYEKHKVYACEVTHQGLSSPVTKSFNRGEC
heavy: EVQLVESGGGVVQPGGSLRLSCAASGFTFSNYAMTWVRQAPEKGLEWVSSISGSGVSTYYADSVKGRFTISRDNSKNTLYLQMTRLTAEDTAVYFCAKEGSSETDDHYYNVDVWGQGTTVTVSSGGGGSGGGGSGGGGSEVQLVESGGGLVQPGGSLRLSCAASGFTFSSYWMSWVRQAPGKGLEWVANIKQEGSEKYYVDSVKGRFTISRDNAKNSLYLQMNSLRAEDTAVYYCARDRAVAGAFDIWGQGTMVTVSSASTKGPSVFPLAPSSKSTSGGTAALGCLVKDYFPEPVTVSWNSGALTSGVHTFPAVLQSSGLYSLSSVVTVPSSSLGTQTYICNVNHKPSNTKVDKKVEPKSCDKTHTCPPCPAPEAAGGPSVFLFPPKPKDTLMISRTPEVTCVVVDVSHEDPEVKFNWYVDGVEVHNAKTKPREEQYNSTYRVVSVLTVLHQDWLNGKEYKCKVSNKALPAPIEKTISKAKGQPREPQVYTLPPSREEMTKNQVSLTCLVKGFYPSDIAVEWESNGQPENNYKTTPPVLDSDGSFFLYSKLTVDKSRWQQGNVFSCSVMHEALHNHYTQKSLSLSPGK
Usually EC50 stands for the concentration needed to bring the measured effect to its halfway point. A low value points to a more potent agent. Molecule B1 registered an EC50 of 1.2 nM. This counts as single-digit nanomolar.

For the origin of these results see US20230287143A1 (published 2023).
